Experimental findings from publication doi:10.1101/2024.03.26.586665 (bioRxiv, 2024) are described below.

The target in series [1] is human CaMKIIα W403L hub (human) (UniProt Q9UQM7). Briefly: mass photometry.
The series “mass photometry” deals with the molecule itself. Put plainly: mass photometry.
The series “SAXS” concerns the molecule itself. Put plainly: SAXS.

By stoichiometry N is commonly meant the number of molecules, sites or subunits per partner or assembly. “human CaMKIIα W403L hub (from UniProt Q9UQM7 345-475) (domain or fragment)” displayed a stoichiometry N in series [1] of 12.

B1: human CaMKIIα WT hub (calcium/calmodulin-dependent protein kinase II subtype alpha, hub domain) (domain or fragment, UniProt Q9UQM7 345-475, looked up)
chain: VRKQEIIKVTEQLIEAISNGDFESYTKMCDPGMTAFEPEALGNLVEGLDFHRFYFENLWSRNSKPVHTTILNPHIHLMGDESACIAYIRITQYLDAGGIPRTAQSEETRVWHRRDGKWQIVHFHRSGAPSV
Turning to B1, the “stoichiometry N” value in the series “mass photometry” was 24; in the series “SAXS”, 12.
